Residue numbers refer to the chain shown, from its start. Blank lines part the entries; values can stand above or below the binder they belong to.
How the values were obtained:
[1] = molecular target: T1, biotinylated human Siglec-15 protein (Acrobiosystems, Cat. No. SG5-H82E9) (human, UniProt Q6ZMC9 20-263, biotinylated); assay: flow cytometry of yeast-displayed Fab, 1 nM HS-15 Biotin 30 min, 2 h wash
T1 construct: Bought reagent; also called HS-15 Biotin; human S-15 Biotin
T1 sequence (looked up): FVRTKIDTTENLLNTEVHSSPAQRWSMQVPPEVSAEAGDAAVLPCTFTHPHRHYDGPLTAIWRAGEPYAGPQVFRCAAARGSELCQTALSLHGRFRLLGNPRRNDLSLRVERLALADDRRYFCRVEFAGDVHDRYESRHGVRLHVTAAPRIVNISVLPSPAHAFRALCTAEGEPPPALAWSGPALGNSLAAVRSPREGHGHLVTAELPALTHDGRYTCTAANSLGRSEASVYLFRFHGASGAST
Method: After sequencing analysis, the single clone with single sequence was identified by flow cytometry staining, incubated with 1 nM HS-15 Biotin for 30 min, respectively, and washed with 1 mL 1×PBSA for 2 h at room temperature; after flow cytometry analysis, the fluorescence intensity of different clones binding to antigen was compared.

[2] = molecular target: T2, human Siglec-15 (Acro, Cat. No. SG5-H52H3) (human, UniProt Q6ZMC9 20-263); assay: BLI (Octet RED96e), antibody captured on AHC sensor, 30 nM antigen, 1:1 fit; first assay
T2 construct: Bought reagent used as the analyte in the Octet assay; also called antigen
T2 sequence (looked up): T1 sequence (looked up)
Method: (§1) Affinity of Siglec-15 binding protein of the present application to human Siglec-15 (Acro, Cat. No.: SG5-H52H3) was determined using Octet RED96e (Fortebio), both of the antigen and the Siglec-15 binding protein of the present application were diluted with 1×PBST (1×PBS: Sangon, B548117-0500; 0.02% Tween 20: Sigma-aldrich, P1379). The antigen is used at a concentration of 30 nM and the Siglec-15 binding protein of the present application is used at a concentration of 33.3 nM.
(§2) First, a sample was added to a 96-well plate (Greiner bio-one, 655209) in a system of 200 μL/well. Software parameters were then set, the plate temperature was set to 30° C., and the frequency at which the standard kinetic signal was collected was 5.0 Hz. Next, the AHC sensor (Fortébio, Cat. No.: 18-0015) was pre-wetted with 1×PBST for 10 min, then the sample was loaded on the machine for detection, with each cycle containing the following steps: 1) immersing the sample in buffer for 60 s; 2) detecting whether the antigen has non-specific binding to the sensor; 3) regenerating in a 10 mM glycine solution at pH 1.7; 4) immersing in buffer for 60 s; 5) immobilizing the Siglec-15 binding protein of the present application on the sensor for 20 s; 6) immersing the sensor in buffer for 180 s; 7) binding the antigen to the Siglec-15 binding protein of the present application for 180 s; 8) dissociating the antigen with Siglec-15 binding protein of the present application for 10 min; and 9) regenerating the sensor.
(§3) The equilibrium dissociation constant (KD) of the Siglec-15 binding protein of the present application was calculated by determining the binding rate constant (kon) and dissociation rate constant (kdis) of the antigen-Siglec-15 binding protein of the present application in a 1:1 binding manner using Data Analysis 12.0 software fromx Fortebio.

[3] = molecular target: T2, human Siglec-15 (Acro, Cat. No. …); assay: BLI (Octet RED96e), antibody captured on AHC sensor, 30 nM antigen, 1:1 fit; second assay; set-up: Response value: unit not given here
Method: as §1, §2, §3

Kd [3]: 0.00843 nM | Response value [3]: 0.285 | koff [3]: 2.87e-06 s⁻¹ | kon [3]: 340000 M⁻¹ s⁻¹
B6: Ab6, purified Siglec-15 binding protein in the form of IgG1 (antibody, V domains shown)
VH: EVQLLESGGGLVQPGGSLRLSCAASGFTFSSYAMSWVRQAPGKGLEWVSTIWGGGGSTYYADSVKGRFTISRDNSKNTLYLQMNSLRAEDTAVYYCAKAIGSSWYSDAFDLWGQGTMVTVSS
VL: DIQMTQSPSSVSASVGDRVTITCRASQDISSWLAWYQQKPGKAPKLLIYVASSLQSGVPSRFSGSGSGTDFTLTISSLQPEDFATYYCQQSYSIPYTFGQGTKLEIKR
notes: Expressed in ExpiCHO cells in the form of IgG1

Kd [3]: 0.0076 nM | Response value [3]: 0.277 | koff [3]: 2.57e-06 s⁻¹ | kon [3]: 338000 M⁻¹ s⁻¹
B7: Ab5, purified Siglec-15 binding protein in the form of IgG1 (antibody, V domains shown)
VH: B6 VH with W52Y
VL: B6 VL
notes: as for B6

Binding MFI [1]: 113 MFI | Binding force (Displaying MFI/Binding MFI) *10000 [1]: 455
B8: Ab7 (clone YC33D5) displayed on yeast in the form of Fab (Fab, V domains shown)
VH: B6 VH with W52S, G56V, S57Y
VL: DIQMTQSPSSVSASVGDRVTITCRASQDISSWLAWYQQKPGKAPKLLIYVASSLQSGVPSRFSGSGSGTDFTLTISSLQPEDFATYYCQQSYSIPYTFGQGTKLEIK

Binding MFI [1]: 109 MFI | Binding force (Displaying MFI/Binding MFI) *10000 [1]: 465
B9: Ab13 (clone YC45H4) displayed on yeast in the form of Fab (Fab, V domains shown)
VH: B6 VH with W52T, G56E
VL: B8 VL with S53F, L54E, Q55H, S56R

Kd [3]: 0.0681 nM | Response value [3]: 0.305 | koff [3]: 3.79e-05 s⁻¹ | kon [3]: 556000 M⁻¹ s⁻¹
B12: Ab13, purified Siglec-15 binding protein in the form of IgG1 (antibody, V domains shown)
VH: B6 VH with W52T, G56E
VL: B6 VL with S53F, L54E, Q55H, S56R
notes: as for B6

Binding MFI [1]: 131 MFI | Binding force (Displaying MFI/Binding MFI) *10000 [1]: 289
B15: Ab9 (clone YC29B3) displayed on yeast in the form of Fab (Fab, V domains shown)
VH: B6 VH with W52S
VL: B8 VL with S31D

The remaining lines, values behind:

B1: Ab0 parent sequence displayed on yeast in the form of Fab (Fab, V domains shown)
VH: B6 VH with W52S
VL: B8 VL
Binding MFI [1]: 52.2 MFI | Binding force (Displaying MFI/Binding MFI) *10000 [1]: 219

B2: Ab0, purified Siglec-15 binding protein in the form of IgG1 (antibody, V domains shown)
VH: B6 VH with W52S
VL: B6 VL
Kd [2]: 0.109 nM | koff [2]: 3.24e-05 s⁻¹ | kon [2]: 298000 M⁻¹ s⁻¹

B3: Ab3, purified Siglec-15 binding protein in the form of IgG1 (antibody, V domains shown)
VH: B6 VH with W52T, G56E
VL: B6 VL
notes: as for B6
Kd [3]: 0.0444 nM | Response value [3]: 0.288 | koff [3]: 1.95e-05 s⁻¹ | kon [3]: 440000 M⁻¹ s⁻¹

B4: Ab2, purified Siglec-15 binding protein in the form of IgG1 (antibody, V domains shown)
VH: B6 VH with F29S, W52S
VL: B6 VL
notes: as for B6
Kd [3]: 0.155 nM | Response value [3]: 0.262 | koff [3]: 6.96e-05 s⁻¹ | kon [3]: 448000 M⁻¹ s⁻¹

B5: Ab3 (clone YC33B2) displayed on yeast in the form of Fab (Fab, V domains shown)
VH: B6 VH with W52T, G56E
VL: B8 VL
Binding MFI [1]: 188 MFI | Binding force (Displaying MFI/Binding MFI) *10000 [1]: 658

B10: Ab2 (clone YC32A6) displayed on yeast in the form of Fab (Fab, V domains shown)
VH: B6 VH with F29S, W52S
VL: B8 VL
Binding MFI [1]: 133 MFI | Binding force (Displaying MFI/Binding MFI) *10000 [1]: 441

B11: Ab6 (clone YC33G4) displayed on yeast in the form of Fab (Fab, V domains shown)
VH: B6 VH
VL: B8 VL
Binding MFI [1]: 94.2 MFI | Binding force (Displaying MFI/Binding MFI) *10000 [1]: 411

B13: Ab15 (clone YC44F5) displayed on yeast in the form of Fab (Fab, V domains shown)
VH: B6 VH with W52T, G56E
VL: B8 VL with S53Y, L54I, Q55H
Binding MFI [1]: 105 MFI | Binding force (Displaying MFI/Binding MFI) *10000 [1]: 409

B14: Ab7, purified Siglec-15 binding protein in the form of IgG1 (antibody, V domains shown)
VH: B6 VH with W52S, G56V, S57Y
VL: B6 VL
notes: as for B6
Kd [3]: 0.00508 nM | Response value [3]: 0.284 | koff [3]: 1.44e-06 s⁻¹ | kon [3]: 282000 M⁻¹ s⁻¹

B16: Ab5 (clone YC33D1) displayed on yeast in the form of Fab (Fab, V domains shown)
VH: B6 VH with W52Y
VL: B8 VL
Binding MFI [1]: 135 MFI | Binding force (Displaying MFI/Binding MFI) *10000 [1]: 480

Source: patent US20240124576A1 (SHANGHAI JEMINCARE PHARMACEUTICAL, published 2024)
